Measured values reported in US20120277161A1, “INHIBITION OF MULTIPLE CELL ACTIVATION PATHWAYS” (INTER-K PTY LIMITED, priority 2009, published 2012).
Ends that are not written are not given here.

How the values were obtained:
[1] = target: human ERK2 (human) (UniProt P28482); assay: cell-based or functional assay
[2] = target: MEK1 (h) (human) (UniProt Q02750); assay: cell-based or functional assay

Chain of human ERK2 (human) (P28482 whole entry): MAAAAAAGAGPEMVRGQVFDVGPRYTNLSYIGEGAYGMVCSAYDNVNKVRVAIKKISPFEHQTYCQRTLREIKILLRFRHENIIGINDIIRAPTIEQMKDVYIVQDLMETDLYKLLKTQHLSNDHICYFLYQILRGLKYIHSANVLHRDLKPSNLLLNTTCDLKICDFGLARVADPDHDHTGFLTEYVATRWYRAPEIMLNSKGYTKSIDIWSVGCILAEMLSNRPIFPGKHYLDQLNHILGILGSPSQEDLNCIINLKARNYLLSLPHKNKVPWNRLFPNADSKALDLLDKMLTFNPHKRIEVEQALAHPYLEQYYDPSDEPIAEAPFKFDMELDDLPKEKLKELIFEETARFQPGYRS

- % inhibition of kinase activity, cell-free assay, dendrimer at 20 µM [1]: 96 % inhibition
- % inhibition of kinase activity, cell-free assay, dendrimer at 20 µM [2]: 92 % inhibition
Binder: RSRARNPLYR (peptide, part only, also: 10 copies on 10-mer dendrimer framework) [peptide dendrimer Dend 10β5 presenting 10 monomer units of the β5 integrin derived peptide …]
